Measured values published in PMC9371972, “Cryo-EM structure of the human CST–Polα/primase complex in a recruitment state” (Nature Structural & Molecular Biology, 2022).

T1: POLA1^FL (subunit of PP^FL) (human, UniProt P09884 1-1462)
T1 construct: the POLA1 chain of m3; Always present with POLA2, PRIM1 and PRIM2; written alone for subunit-to-subunit cross-links; source: Tni insect cells (baculovirus), purified as part of PP^FL
T1 sequence (looked up): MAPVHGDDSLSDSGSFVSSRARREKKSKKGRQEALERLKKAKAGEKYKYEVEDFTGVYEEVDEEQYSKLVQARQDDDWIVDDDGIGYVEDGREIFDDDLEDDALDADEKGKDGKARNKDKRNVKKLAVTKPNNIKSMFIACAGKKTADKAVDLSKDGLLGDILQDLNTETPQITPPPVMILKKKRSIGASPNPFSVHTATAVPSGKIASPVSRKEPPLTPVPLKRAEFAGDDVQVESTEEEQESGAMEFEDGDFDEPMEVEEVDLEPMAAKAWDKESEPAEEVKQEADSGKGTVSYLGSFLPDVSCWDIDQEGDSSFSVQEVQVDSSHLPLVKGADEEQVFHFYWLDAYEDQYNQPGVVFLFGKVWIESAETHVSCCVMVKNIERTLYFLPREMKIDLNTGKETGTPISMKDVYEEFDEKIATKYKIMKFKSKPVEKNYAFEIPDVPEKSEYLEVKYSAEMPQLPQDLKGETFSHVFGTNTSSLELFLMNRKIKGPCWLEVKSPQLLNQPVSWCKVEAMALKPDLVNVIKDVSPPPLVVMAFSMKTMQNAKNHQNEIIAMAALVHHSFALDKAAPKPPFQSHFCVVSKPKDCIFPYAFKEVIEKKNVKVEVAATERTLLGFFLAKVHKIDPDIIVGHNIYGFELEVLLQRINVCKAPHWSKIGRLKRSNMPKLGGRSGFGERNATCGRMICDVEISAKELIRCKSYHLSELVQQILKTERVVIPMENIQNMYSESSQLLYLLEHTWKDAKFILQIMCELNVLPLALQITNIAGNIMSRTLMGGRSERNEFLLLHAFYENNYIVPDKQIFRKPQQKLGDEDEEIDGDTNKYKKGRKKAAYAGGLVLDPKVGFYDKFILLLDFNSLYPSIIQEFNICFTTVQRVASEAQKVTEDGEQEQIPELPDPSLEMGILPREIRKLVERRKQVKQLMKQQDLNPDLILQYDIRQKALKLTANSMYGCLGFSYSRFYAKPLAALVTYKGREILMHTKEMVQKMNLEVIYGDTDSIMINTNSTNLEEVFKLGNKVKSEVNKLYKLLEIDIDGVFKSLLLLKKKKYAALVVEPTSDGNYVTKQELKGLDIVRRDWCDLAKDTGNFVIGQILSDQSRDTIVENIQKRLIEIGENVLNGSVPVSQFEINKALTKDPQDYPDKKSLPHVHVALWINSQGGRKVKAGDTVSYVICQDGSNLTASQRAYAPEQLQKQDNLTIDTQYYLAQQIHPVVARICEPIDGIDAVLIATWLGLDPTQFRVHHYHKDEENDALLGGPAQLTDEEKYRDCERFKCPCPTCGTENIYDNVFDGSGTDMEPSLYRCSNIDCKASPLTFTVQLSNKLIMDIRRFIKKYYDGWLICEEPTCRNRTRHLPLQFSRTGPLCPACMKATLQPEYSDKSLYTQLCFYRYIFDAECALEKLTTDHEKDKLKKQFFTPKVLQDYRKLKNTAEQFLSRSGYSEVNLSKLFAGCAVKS

B1: CTC1 (subunit of the CST complex) (natural protein, human)
chain: MAAGRAQVPSSEQAWLEDAQVFIQKTLCPAVKEPNVQLTPLVIDCVKTVWLSQGRNQGSTLPLSYSFVSVQDLKTHQRLPCCSHLSWSSSAYQAWAQEAGPNGNPLPREQLLLLGTLTDLSADLEQECRNGSLYVRDNTGVLSCELIDLDLSWLGHLFLFPRWSYLPPARWNSSGEGHLELWDAPVPVFPLTISPGPVTPIPVLYPESASCLLRLRNKLRGVQRNLAGSLVRLSALVKSKQKAYFILSLGRSHPAVTHVSIIVQVPAQLVWHRALRPGTAYVLTELRVSKIRGQRQHVWMTSQSSRLLLLKPECVQELELELEGPLLEADPKPLPMPSNSEDKKDPESLVRYSRLLSYSGAVTGVLNEPAGLYELDGQLGLCLAYQQFRGLRRVMRPGVCLQLQDVHLLQSVGGGTRRPVLAPCLRGAVLLQSFSRQKPGAHSSRQAYGASLYEQLVWERQLGLPLYLWATKALEELACKLCPHVLRHHQFLQHSSPGSPSLGLQLLAPTLDLLAPPGSPVRNAHNEILEEPHHCPLQKYTRLQTPSSFPTLATLKEEGQRKAWASFDPKALLPLPEASYLPSCQLNRRLAWSWLCLLPSAFCPAQVLLGVLVASSHKGCLQLRDQSGSLPCLLLAKHSQPLSDPRLIGCLVRAERFQLIVERDVRSSFPSWKELSMPGFIQKQQARVYVQFFLADALILPVPRPCLHSATPSTPQTDPTGPEGPHLGQSRLFLLCHKEALMKRNFCVPPGASPEVPKPALSFYVLGSWLGGTQRKEGTGWGLPEPQGNDDNDQKVHLIFFGSSVRWFEFLHPGQVYRLIAPGPATPMLFEKDGSSCISRRPLELAGCASCLTVQDNWTLELESSQDIQDVLDANKSLPESSLTDLLSDNFTDSLVSFSAEILSRTLCEPLVASLWMKLGNTGAMRRCVKLTVALETAECEFPPHLDVYIEDPHLPPSLGLLPGARVHFSQLEKRVSRSHNVYCCFRSSTYVQVLSFPPETTISIPLPHIYLAELLQGGQSPFQATASCHIVSVFSLQLFWVCAYCTSICRQGKCTRLGSTCPTQTAISQAIIRLLVEDGTAEAVVTCRNHHVAAALGLCPREWASLLDFVQVPGRVVLQFAGPGAQLESSARVDEPMTMFLWTLCTSPSVLRPIVLSFELERKPSKIVPLEPPRLQRFQCGELPFLTHVNPRLRLSCLSIRESEYSSSLGILASSC
notes: human CTC1; the CTC1 chain of m1; Always present with STN1 and TEN1; written alone for subunit-to-subunit contacts; source: Tni insect cells (baculovirus), purified as part of CST; not shown: His6, N-terminal, cleaved; MBP, N-terminal, cleaved

Legend:
Conditions in all cases: both partners purified
[1] = molecular target: T1, POLA1^FL (subunit of PP^FL); experiment: cross-linking; CX-MS of the SEC-reconstituted CST–PP^FL complex with DSS (0.35–0.75 mM, 25 °C, 30 min), 1 mg/mL
[2] = molecular target: T2, CTC1–STN1–TEN1 (CST) complex (human, UniProt Q2NKJ3 1-1217; Q9H668 1-368; Q86WV5 1-123); experiment: SEC; purified proteins mixed (PP^FL and CST equimolar; CST with twofold molar excess of His6-MBP-POLA1^N), 1 h at 4 °C, HiLoad Superdex 200 16/600 PG, 20 mM HEPES pH 7.5, 150 mM NaCl, 0.5 mM TCEP, 5% glycerol
T2 construct: human CTC1; human STN1; human TEN1; Expressed from pBIG1a(His6-MBP-PreSc-CTC1/STN1/TEN1); tag removed with rhinovirus 3C protease; source: Tni insect cells (baculovirus), purified (Ni-NTA, 3C protease cleavage, heparin, SEC); not shown: His6, N-terminal, cleaved; MBP, N-terminal, cleaved; copies: + +

[3] = molecular target: B1; experiment: cross-linking; CX-MS of the SEC-reconstituted CST–POLA1^N complex with BS3 (0.35–0.75 mM, 25 °C, 30 min), 1 mg/mL

T2 sequence (Q9H668 whole entry, chain 2 of 2): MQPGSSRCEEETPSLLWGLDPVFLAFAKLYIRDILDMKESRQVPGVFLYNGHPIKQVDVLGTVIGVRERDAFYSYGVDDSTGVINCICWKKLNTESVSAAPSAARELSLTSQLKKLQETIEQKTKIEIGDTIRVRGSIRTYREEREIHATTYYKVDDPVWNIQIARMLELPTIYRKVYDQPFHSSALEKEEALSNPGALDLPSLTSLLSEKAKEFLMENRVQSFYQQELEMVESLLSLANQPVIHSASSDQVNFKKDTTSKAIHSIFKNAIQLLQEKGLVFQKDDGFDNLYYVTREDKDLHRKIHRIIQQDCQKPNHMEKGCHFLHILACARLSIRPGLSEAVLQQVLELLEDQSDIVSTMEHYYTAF
T2 sequence (Q86WV5 whole entry, chain 3 of 2): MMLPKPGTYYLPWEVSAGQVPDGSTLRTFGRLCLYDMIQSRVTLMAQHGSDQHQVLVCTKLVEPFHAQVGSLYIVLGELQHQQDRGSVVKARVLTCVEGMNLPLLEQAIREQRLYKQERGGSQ

| Binder | binding result [1] | binding result [2] | binding result [3] |
| --- | --- | --- | --- |
| B1 | binds | – | – |
| His6-MBP-PreSc-POLA1^N (domain or fragment, human, UniProt P09884 1-339, looked up, human POLA1 N-terminal region, POLA1^N, 1–339 aa in the methods (1–335 aa in the results); MBP served as a mass label in negative-stain EM; also called MBP-POLA1^N; MBP-tagged POLA1^N; source: Tni insect cells (baculovirus), purified (Ni-NTA, SEC); not shown: His6, N-terminal, kept; MBP, N-terminal, kept) MAPVHGDDSLSDSGSFVSSRARREKKSKKGRQEALERLKKAKAGEKYKYEVEDFTGVYEEVDEEQYSKLVQARQDDDWIVDDDGIGYVEDGREIFDDDLEDDALDADEKGKDGKARNKDKRNVKKLAVTKPNNIKSMFIACAGKKTADKAVDLSKDGLLGDILQDLNTETPQITPPPVMILKKKRSIGASPNPFSVHTATAVPSGKIASPVSRKEPPLTPVPLKRAEFAGDDVQVESTEEEQESGAMEFEDGDFDEPMEVEEVDLEPMAAKAWDKESEPAEEVKQEADSGKGTVSYLGSFLPDVSCWDIDQEGDSSFSVQEVQVDSSHLPLVKGADEEQ | – | binds | binds |
